Measurements published in IntAct's records for PubMed 35512704.

B1: Speckle-type POZ protein (Homo sapiens), O43791 (parent)
chain: MSRVPSPPPPAEMSSGPVAESWCYTQIKVVKFSYMWTINNFSFCREEMGEVIKSSTFSSGANDKLKWCLRVNPKGLDEESKDYLSLYLLLVSCPKSEVRAKFKFSILNAKGEETKAMESQRAYRFVQGKDWGFKKFIRRDFLLDEANGLLPDDKLTLFCEVSVVQDSVNISGQNTMNMVKVPECRLADELGGLWENSRFTDCCLCVAGQEFQAHKAILAARSPVFSAMFEHEMEESKKNRVEINDVEPEVFKEMMCFIYTGKAPNLDKMADDLLAAADKYALERLKVMCEDALCSNLSVENAAEILILADLHSADQLKTQAVDFINYHASDVLETSGWKSMVVSHPHLVAEAYRSLASAQCPFLGPPRKRLKQS
B2: 14-3-3 protein zeta/delta (Homo sapiens), P63104 (parent)
chain: MDKNELVQKAKLAEQAERYDDMAACMKSVTEQGAELSNEERNLLSVAYKNVVGARRSSWRVVSSIEQKTEGAEKKQQMAREYREKIETELRDICNDVLSLLEKFLIPNASQAESKVFYLKMKGDYYRYLAEVAAGDDKKGIVDQSQQAYQEAFEISKKEMQPTHPIRLGLALNFSVFYYEILNSPEKACSLAKTAFDEAIAELDTLSEESYKDSTLIMQLLRDNLTLWTSDTQGDEAEAGEGGEN

Variants of: B1
Conditions: with pdk1_human PDK1, Q15118

Variant | effect of a mutation on the interaction
F133L | with no effect

Variants of: B1
Conditions: with PIK3C2B

Variant | effect of a mutation on the interaction
F133L | with no effect

Variants of: B1
Conditions: with pk3ca_human PIK3CA

Variant | effect of a mutation on the interaction
F133L | with no effect

Variants of: B1
Conditions: with pk3cg_human PIK3CG

Variant | effect of a mutation on the interaction
F133L | with no effect

Variants of: B1
Conditions: with p85b_human PIK3R2, O00459

Variant | effect of a mutation on the interaction
F133L | with no effect

Variants of: B1
Conditions: with dpod1_human POLD1, P28340

Variant | effect of a mutation on the interaction
F133L | with no effect

Variants of: B1
Conditions: with dpoe1_human POLE

Variant | effect of a mutation on the interaction
F133L | with no effect

Variants of: B1
Conditions: with ppard_human PPARD

Variant | effect of a mutation on the interaction
F133L | with no effect

Variants of: B1
Conditions: with prdm1_human PRDM1, O75626

Variant | effect of a mutation on the interaction
F133L | with no effect

Variants of: B1
Conditions: with prex2_human PREX2, Q70Z35

Variant | effect of a mutation on the interaction
F133L | with no effect

Variants of: B1
Conditions: with aapk2_human PRKAA2, P54646

Variant | effect of a mutation on the interaction
F133L | with no effect

Variants of: B1
Conditions: with prss8_human PRSS8, Q16651

Variant | effect of a mutation on the interaction
F133L | with no effect

Variants of: B1
Conditions: with tf65_human RELA

Variant | effect of a mutation on the interaction
F133L | with no effect

Variants of: B1
Conditions: with rictr_human RICTOR

Variant | effect of a mutation on the interaction
F133L | with no effect

Variants of: B1
Conditions: with rnf43_human RNF43, Q68DV7

Variant | effect of a mutation on the interaction
F133L | with no effect

Variants of: B1
Conditions: with ros1_human ROS1, P08922

Variant | effect of a mutation on the interaction
F133L | with no effect

Variants of: B1
Conditions: with rl11_human RPL11, P62913

Variant | effect of a mutation on the interaction
F133L | with no effect

Variants of: B1
Conditions: with rl5_human RPL5, P46777

Variant | effect of a mutation on the interaction
F133L | with no effect

Variants of: B1
Conditions: with rs15_human RPS15, P62841

Variant | effect of a mutation on the interaction
F133L | with no effect

Variants of: B1
Conditions: with rptor_human RPTOR

Variant | effect of a mutation on the interaction
F133L | with no effect

Variants of: B1
Conditions: with rxra_human RXRA

Variant | effect of a mutation on the interaction
F133L | with no effect

Variants of: B1
Conditions: with sdha_human SDHA

Variant | effect of a mutation on the interaction
F133L | with no effect

Variants of: B1
Conditions: with setbp_human SETBP1, Q9Y6X0
setbp_human SETBP1, Q9Y6X0, sequence (Q9Y6X0 whole entry): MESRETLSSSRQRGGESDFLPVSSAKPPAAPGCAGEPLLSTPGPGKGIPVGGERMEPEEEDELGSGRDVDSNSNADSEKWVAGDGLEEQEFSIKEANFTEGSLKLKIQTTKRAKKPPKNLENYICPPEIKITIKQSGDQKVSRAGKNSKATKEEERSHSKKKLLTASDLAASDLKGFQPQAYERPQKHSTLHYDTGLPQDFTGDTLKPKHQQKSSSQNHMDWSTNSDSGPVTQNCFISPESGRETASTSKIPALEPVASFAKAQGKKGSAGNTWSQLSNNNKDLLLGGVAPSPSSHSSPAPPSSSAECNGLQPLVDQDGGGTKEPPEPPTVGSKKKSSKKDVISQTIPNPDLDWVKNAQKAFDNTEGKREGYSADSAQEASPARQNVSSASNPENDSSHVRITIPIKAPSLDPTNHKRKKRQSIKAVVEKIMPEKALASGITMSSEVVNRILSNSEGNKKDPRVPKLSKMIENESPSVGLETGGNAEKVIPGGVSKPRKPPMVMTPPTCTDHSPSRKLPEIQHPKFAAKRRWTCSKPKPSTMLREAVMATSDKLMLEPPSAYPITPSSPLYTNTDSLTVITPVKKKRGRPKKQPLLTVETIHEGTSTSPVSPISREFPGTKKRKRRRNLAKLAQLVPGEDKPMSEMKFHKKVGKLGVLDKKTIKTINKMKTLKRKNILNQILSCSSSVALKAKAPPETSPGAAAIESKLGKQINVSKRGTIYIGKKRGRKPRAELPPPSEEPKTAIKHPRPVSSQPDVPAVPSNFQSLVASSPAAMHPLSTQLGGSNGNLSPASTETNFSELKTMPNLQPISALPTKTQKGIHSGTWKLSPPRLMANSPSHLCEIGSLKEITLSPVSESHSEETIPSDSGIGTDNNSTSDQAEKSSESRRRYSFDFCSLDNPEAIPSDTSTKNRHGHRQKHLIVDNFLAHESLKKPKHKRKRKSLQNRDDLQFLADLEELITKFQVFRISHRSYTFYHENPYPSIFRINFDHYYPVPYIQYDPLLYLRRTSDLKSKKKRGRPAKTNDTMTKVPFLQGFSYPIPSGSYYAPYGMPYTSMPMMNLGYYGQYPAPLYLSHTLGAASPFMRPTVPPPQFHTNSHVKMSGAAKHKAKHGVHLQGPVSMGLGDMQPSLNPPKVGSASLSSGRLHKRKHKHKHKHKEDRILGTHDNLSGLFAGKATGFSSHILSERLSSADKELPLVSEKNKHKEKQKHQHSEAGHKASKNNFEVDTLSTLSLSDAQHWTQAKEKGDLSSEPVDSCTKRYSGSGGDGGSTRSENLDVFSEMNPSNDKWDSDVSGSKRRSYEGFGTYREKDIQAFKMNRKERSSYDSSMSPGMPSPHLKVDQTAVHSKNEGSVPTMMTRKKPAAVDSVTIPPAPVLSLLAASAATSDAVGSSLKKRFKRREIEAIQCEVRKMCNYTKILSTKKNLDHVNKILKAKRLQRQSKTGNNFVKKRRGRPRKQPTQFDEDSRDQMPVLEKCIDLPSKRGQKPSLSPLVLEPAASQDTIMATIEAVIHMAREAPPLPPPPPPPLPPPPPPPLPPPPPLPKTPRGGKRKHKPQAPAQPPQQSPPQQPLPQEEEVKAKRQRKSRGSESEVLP

Variant | effect of a mutation on the interaction
F133L | with no effect

Variants of: B1
Conditions: with sf3b1_human SF3B1, O75533

Variant | effect of a mutation on the interaction
F133L | with no effect

Variants of: B1
Conditions: with skp2_human SKP2, Q13309

Variant | effect of a mutation on the interaction
F133L | with no effect

Variants of: B1
Conditions: with smad1_human SMAD1, Q15797
smad1_human SMAD1, Q15797, sequence (Q15797 whole entry): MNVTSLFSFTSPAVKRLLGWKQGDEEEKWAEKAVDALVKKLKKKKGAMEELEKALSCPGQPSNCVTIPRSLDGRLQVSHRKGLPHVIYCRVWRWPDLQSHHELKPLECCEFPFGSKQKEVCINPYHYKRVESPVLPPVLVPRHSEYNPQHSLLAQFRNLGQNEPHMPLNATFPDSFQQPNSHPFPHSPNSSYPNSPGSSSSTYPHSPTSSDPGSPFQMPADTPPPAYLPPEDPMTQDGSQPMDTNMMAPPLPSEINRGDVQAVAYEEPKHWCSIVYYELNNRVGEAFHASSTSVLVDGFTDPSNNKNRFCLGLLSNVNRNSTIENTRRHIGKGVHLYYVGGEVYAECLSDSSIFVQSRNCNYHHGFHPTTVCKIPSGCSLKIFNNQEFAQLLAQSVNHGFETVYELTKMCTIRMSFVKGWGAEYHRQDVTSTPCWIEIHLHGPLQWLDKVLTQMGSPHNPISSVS

Variant | effect of a mutation on the interaction
F133L | with no effect

Variants of: B1
Conditions: with smca4_human SMARCA4, P51532

Variant | effect of a mutation on the interaction
F133L | with no effect

Variants of: B1
Conditions: with snf5_human SMARCB1, Q12824
snf5_human SMARCB1, Q12824, sequence (Q12824 whole entry): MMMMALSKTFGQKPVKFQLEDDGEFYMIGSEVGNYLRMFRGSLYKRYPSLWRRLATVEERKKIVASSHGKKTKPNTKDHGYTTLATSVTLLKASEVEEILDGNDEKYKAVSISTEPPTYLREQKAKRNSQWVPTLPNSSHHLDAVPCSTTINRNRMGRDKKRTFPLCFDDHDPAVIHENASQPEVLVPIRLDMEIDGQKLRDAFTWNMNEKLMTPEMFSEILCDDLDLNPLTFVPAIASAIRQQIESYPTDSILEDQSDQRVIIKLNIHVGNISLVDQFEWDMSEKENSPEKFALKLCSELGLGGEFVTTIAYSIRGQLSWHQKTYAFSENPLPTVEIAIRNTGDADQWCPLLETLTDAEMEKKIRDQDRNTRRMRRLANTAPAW

Variant | effect of a mutation on the interaction
F133L | with no effect

Variants of: B1
Conditions: with smo_human SMO

Variant | effect of a mutation on the interaction
F133L | with no effect

Variants of: B1
Conditions: with smuf1_human SMURF1, Q9HCE7
smuf1_human SMURF1, Q9HCE7, sequence (Q9HCE7 whole entry): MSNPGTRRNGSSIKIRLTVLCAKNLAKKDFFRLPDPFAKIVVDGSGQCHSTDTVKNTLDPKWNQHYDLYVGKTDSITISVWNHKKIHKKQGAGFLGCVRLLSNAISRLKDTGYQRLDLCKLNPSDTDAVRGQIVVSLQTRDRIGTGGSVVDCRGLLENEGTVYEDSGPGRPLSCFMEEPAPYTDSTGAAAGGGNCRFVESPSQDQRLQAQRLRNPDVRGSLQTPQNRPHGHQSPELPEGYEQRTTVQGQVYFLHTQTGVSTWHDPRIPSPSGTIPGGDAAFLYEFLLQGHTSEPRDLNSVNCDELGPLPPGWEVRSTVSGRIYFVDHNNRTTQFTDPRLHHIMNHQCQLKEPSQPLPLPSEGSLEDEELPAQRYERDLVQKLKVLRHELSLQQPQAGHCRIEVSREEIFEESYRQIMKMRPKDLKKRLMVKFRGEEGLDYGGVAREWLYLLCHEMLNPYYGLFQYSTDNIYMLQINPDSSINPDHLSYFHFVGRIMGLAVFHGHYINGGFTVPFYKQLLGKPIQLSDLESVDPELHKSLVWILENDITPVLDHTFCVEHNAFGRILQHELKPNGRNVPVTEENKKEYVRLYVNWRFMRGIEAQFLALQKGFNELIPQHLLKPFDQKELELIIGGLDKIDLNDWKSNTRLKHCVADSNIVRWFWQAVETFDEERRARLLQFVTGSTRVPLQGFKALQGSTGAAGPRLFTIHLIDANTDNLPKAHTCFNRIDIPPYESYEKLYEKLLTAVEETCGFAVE

Variant | effect of a mutation on the interaction
F133L | with no effect

Variants of: B1
Conditions: with socs1_human SOCS1, O15524
socs1_human SOCS1, O15524, sequence (O15524 whole entry): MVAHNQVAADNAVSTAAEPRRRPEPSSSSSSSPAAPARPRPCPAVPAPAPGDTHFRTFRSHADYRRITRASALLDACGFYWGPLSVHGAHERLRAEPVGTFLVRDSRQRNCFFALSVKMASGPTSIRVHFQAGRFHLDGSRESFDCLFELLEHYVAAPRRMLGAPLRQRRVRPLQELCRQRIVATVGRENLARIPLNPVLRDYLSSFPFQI

Variant | effect of a mutation on the interaction
F133L | with no effect

Variants of: B1
Conditions: with sox10_human SOX10, P56693

Variant | effect of a mutation on the interaction
F133L | with no effect

Variants of: B1
Conditions: with sox2_human SOX2, P48431

Variant | effect of a mutation on the interaction
F133L | with no effect

Variants of: B1
Conditions: with src_human SRC

Variant | effect of a mutation on the interaction
F133L | with no effect

Variants of: B1
Conditions: with whr1_human WHR1, P49842

Variant | effect of a mutation on the interaction
F133L | with no effect

Variants of: B1
Conditions: with stk38_human STK38, Q15208

Variant | effect of a mutation on the interaction
F133L | with no effect

Variants of: B1
Conditions: with eloc_human ELOC

Variant | effect of a mutation on the interaction
F133L | with no effect

Variants of: B1
Conditions: with tfe2_human TCF3, P15923

Variant | effect of a mutation on the interaction
F133L | with no effect

Variants of: B1
Conditions: with tead1_human TEAD1, P28347

Variant | effect of a mutation on the interaction
F133L | with no effect

Variants of: B1
Conditions: with tead3_human TEAD3, Q99594

Variant | effect of a mutation on the interaction
F133L | with no effect

Variants of: B1
Conditions: with tead4_human TEAD4, Q15561

Variant | effect of a mutation on the interaction
F133L | with no effect

Variants of: B1
Conditions: with tet2_human TET2, Q6N021

Variant | effect of a mutation on the interaction
F133L | with no effect

Variants of: B1
Conditions: with TMEM106B

Variant | effect of a mutation on the interaction
F133L | with no effect

Variants of: B1
Conditions: with tnr14_human TNFRSF14, Q92956

Variant | effect of a mutation on the interaction
F133L | with no effect

Variants of: B1
Conditions: with tshr_human TSHR

Variant | effect of a mutation on the interaction
F133L | with no effect

Variants of: B1
Conditions: with vegfa_human VEGFA

Variant | effect of a mutation on the interaction
F133L | with no effect

Variants of: B1
Conditions: with vhl_human VHL

Variant | effect of a mutation on the interaction
F133L | with no effect

Variants of: B1
Conditions: with wee1_human WEE1, P30291

Variant | effect of a mutation on the interaction
F133L | with no effect

Variants of: B1
Conditions: with wwtr1_human WWTR1, Q9GZV5

Variant | effect of a mutation on the interaction
F133L | with no effect

Variants of: B1
Conditions: with xpo1_human XPO1, O14980

Variant | effect of a mutation on the interaction
F133L | with no effect

Variants of: B1
Conditions: with asxl2_human ASXL2, Q76L83

Variant | effect of a mutation on the interaction
F133L | causing an interaction

Variants of: B1
Conditions: with ufo_human AXL

Variant | effect of a mutation on the interaction
F133L | causing an interaction

Variants of: B1
Conditions: with birc2_human BIRC2, Q13490
birc2_human BIRC2, Q13490, sequence (Q13490 whole entry): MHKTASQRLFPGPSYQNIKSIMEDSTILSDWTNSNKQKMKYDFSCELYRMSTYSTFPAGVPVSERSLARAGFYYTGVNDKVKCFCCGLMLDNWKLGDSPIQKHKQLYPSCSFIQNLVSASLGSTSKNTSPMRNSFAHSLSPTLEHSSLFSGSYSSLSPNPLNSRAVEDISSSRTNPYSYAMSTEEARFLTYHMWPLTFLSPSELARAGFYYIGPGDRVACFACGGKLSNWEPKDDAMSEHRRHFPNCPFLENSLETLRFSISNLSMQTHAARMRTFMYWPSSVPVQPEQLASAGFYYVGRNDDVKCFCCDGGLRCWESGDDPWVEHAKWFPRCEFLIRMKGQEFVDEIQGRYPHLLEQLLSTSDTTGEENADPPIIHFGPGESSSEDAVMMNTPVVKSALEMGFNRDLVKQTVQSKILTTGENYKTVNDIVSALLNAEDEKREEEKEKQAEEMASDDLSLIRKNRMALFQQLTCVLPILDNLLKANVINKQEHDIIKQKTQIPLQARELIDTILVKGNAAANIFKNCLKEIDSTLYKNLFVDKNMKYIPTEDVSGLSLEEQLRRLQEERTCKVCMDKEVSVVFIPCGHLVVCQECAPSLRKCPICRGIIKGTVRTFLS

Variant | effect of a mutation on the interaction
F133L | causing an interaction

Variants of: B1
Conditions: with cul4b_human CUL4B

Variant | effect of a mutation on the interaction
F133L | causing an interaction

Variants of: B1
Conditions: with jak1_human JAK1, P23458

Variant | effect of a mutation on the interaction
F133L | causing an interaction

Variants of: B1
Conditions: with pk3cb_human PIK3CB

Variant | effect of a mutation on the interaction
F133L | causing an interaction

Variants of: B1
Conditions: with tsc2_human TSC2, P49815

Variant | effect of a mutation on the interaction
F133L | causing an interaction

Variants of: B1
Conditions: with birc2_human BIRC2, Q13490
Remark: another data set of the same source

Variant | effect of a mutation on the interaction
F133L | increasing interaction strength

Variants of: B1
Conditions: with cblb_human CBLB

Variant | effect of a mutation on the interaction
F133L | causing an interaction

Variants of: B1
Conditions: with e2f5_human E2F5, Q15329
e2f5_human E2F5, Q15329, sequence (Q15329 whole entry): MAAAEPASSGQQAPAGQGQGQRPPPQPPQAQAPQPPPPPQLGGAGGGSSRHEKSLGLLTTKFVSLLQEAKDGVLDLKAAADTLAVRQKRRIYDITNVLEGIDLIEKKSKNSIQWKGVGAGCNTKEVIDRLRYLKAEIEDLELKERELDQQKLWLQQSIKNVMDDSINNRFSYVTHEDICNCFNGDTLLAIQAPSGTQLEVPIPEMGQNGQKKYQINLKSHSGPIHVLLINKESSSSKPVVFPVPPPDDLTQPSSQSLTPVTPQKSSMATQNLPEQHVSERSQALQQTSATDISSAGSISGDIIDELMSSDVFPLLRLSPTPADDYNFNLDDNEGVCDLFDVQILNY

Variant | effect of a mutation on the interaction
F133L | causing an interaction

Variants of: B1
Conditions: with gata1_human GATA1, P15976
gata1_human GATA1, P15976, sequence (P15976 whole entry): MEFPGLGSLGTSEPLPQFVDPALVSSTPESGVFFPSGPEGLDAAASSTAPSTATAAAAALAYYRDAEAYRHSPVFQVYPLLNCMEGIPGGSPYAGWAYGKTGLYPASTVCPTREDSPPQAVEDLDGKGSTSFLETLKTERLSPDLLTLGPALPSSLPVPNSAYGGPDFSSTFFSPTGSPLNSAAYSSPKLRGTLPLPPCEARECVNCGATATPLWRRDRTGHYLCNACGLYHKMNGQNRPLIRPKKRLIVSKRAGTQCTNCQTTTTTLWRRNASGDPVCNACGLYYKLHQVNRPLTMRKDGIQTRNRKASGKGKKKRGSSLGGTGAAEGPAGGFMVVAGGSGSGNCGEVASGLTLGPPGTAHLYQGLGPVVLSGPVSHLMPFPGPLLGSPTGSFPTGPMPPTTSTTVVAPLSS

Variant | effect of a mutation on the interaction
F133L | increasing interaction strength

Variants of: B1
Conditions: with igf1r_human IGF1R

Variant | effect of a mutation on the interaction
F133L | increasing interaction strength

Variants of: B1
Conditions: with esr1_human ESR1, P03372

Variant | effect of a mutation on the interaction
F133L | decreasing interaction strength

Variants of: B2
Conditions: with braf_human BRAF

Variant | effect of a mutation on the interaction
K49E | disrupting interaction strength
